Sequences and labels used below:
B1: C1orf137 (parent)
chain: RQHHHQSSFPGSLPQETNLTLKVC
B2: RIPK4 (parent)
chain: VSVNAQTLDGRTPLHLAAQRGHYR
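Note: lentivirally expressed fusions sorted by FACS into six bins by GFP to DsRed ratio, PSI derived from sequencing read proportions per bin multiplied by bin number.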

The variants in the first data set derive from B1. Kind of data set: protein stability index of a GFP-peptide fusion (GPS, HEK-293T) (PSI 1-6); higher = more stable. Particulars: c terminus: a fixed tail appended.
Take RQKHHQSSFPGSLPQETNLTLKVC [H3K]: the protein stability index was determined as 3.31. Still for that read-out and setting: the value for RQAHHQSSFPGSLPQETNLTLKVC [H3A] was 2.84; that for RQIHHQSSFPGSLPQETNLTLKVC [H3I] was 3.06. The same measure, in the same setting: the result for RQEHHQSSFPGSLPQETNLTLKVC [H3E] reads 3.69; that for RQLHHQSSFPGSLPQETNLTLKVC [H3L], 2.34. The same measure, in the same setting: the result for RQDHHQSSFPGSLPQETNLTLKVC [H3D] reads 2.87. Take RQFHHQSSFPGSLPQETNLTLKVC [H3F]: the protein stability index was determined as 2.04. On the same count and under the same terms, the result for RQCHHQSSFPGSLPQETNLTLKVC [H3C] reads 2.54; that for RQMHHQSSFPGSLPQETNLTLKVC [H3M], 3.25. As for RQGHHQSSFPGSLPQETNLTLKVC [H3G], the protein stability index was 3.11. On the same count and under the same terms, the result for RYHHHQSSFPGSLPQETNLTLKVC [Q2Y] reads 2.63. Consider RGHHHQSSFPGSLPQETNLTLKVC [Q2G], for which the protein stability index worked out at 3.57.

As to RRHHHQSSFPGSLPQETNLTLKVC [Q2R], the protein stability index worked out at 3.04. Same read-out and setting: the result for REHHHQSSFPGSLPQETNLTLKVC [Q2E] reads 2.59; that for RTHHHQSSFPGSLPQETNLTLKVC [Q2T], 3.45. On the same count and under the same terms, the result for RCHHHQSSFPGSLPQETNLTLKVC [Q2C] reads 2.04; that for RNHHHQSSFPGSLPQETNLTLKVC [Q2N], 2.62. With RSHHHQSSFPGSLPQETNLTLKVC [Q2S], the protein stability index is 2.43. Still for that read-out and setting: the value for RMHHHQSSFPGSLPQETNLTLKVC [Q2M] was 2.88; that for RLHHHQSSFPGSLPQETNLTLKVC [Q2L] was 2.4.

As for RWHHHQSSFPGSLPQETNLTLKVC [Q2W], the protein stability index was found to be 2.58. On the same count and under the same terms, the value for RHHHHQSSFPGSLPQETNLTLKVC [Q2H] was 2.27; that for RFHHHQSSFPGSLPQETNLTLKVC [Q2F] was 3.96. The same measure, in the same setting: the result for RVHHHQSSFPGSLPQETNLTLKVC [Q2V] reads 2.47; that for RKHHHQSSFPGSLPQETNLTLKVC [Q2K], 2.31. On the same count and under the same terms, the value for RIHHHQSSFPGSLPQETNLTLKVC [Q2I] was 2.28; that for RPHHHQSSFPGSLPQETNLTLKVC [Q2P] was 2.77; that for RAHHHQSSFPGSLPQETNLTLKVC [Q2A] was 2.67. RDHHHQSSFPGSLPQETNLTLKVC [Q2D]: the protein stability index is 3.06. The same measure, in the same setting: the result for CQHHHQSSFPGSLPQETNLTLKVC [R1C] reads 1.97; that for TQHHHQSSFPGSLPQETNLTLKVC [R1T], 3.12; that for FQHHHQSSFPGSLPQETNLTLKVC [R1F], 1.63. IQHHHQSSFPGSLPQETNLTLKVC [R1I]: the protein stability index stood at 3.28.

With MQHHHQSSFPGSLPQETNLTLKVC [R1M], the protein stability index is 2.87. Consider KQHHHQSSFPGSLPQETNLTLKVC [R1K], for which the protein stability index worked out at 2.88. Still for that read-out and setting: the value for DQHHHQSSFPGSLPQETNLTLKVC [R1D] was 3.79. Same read-out and setting: the result for AQHHHQSSFPGSLPQETNLTLKVC [R1A] reads 2.7. For EQHHHQSSFPGSLPQETNLTLKVC [R1E], the protein stability index came to 3.58. For NQHHHQSSFPGSLPQETNLTLKVC [R1N], the protein stability index is 2.7.

For LQHHHQSSFPGSLPQETNLTLKVC [R1L], the protein stability index is 2.44. The same measure, in the same setting: the value for WQHHHQSSFPGSLPQETNLTLKVC [R1W] was 3.5. The same measure, in the same setting: the value for PQHHHQSSFPGSLPQETNLTLKVC [R1P] was 2.79; that for HQHHHQSSFPGSLPQETNLTLKVC [R1H] was 3.2; that for QQHHHQSSFPGSLPQETNLTLKVC [R1Q] was 3.44. For the variant YQHHHQSSFPGSLPQETNLTLKVC [R1Y], the protein stability index was found to be 2.07.

On to SQHHHQSSFPGSLPQETNLTLKVC [R1S], for which the protein stability index amounted to 3.4. Same read-out and setting: the result for GQHHHQSSFPGSLPQETNLTLKVC [R1G] reads 3.69; that for VQHHHQSSFPGSLPQETNLTLKVC [R1V], 3.05.

Variants of B2 are the subject of another data set. The description is as above. The conditions noted are these: c terminus: a fixed tail appended.
Take VSVNAQTLDGRTPLHLAAQRGQYR [H22Q]: the protein stability index amounted to 3.56. Still for that read-out and setting: the value for VSVNAQTLDGRTPLHLAAQRGSYR [H22S] was 3.29; that for VSVNAQTLDGRTPLHLAAQRGGYR [H22G] was 4.53; that for VSVNAQTLDGRTPLHLAAQRGFYR [H22F] was 2.96.

VSVNAQTLDGRTPLHLAAQRGWYR [H22W]: the protein stability index was determined as 2.23.

On to VSVNAQTLDGRTPLHLAAQRGTYR [H22T], for which the protein stability index came out at 3.57. Same read-out and setting: the value for VSVNAQTLDGRTPLHLAAQRGNYR [H22N] was 3.48; that for VSVNAQTLDGRTPLHLAAQRGVYR [H22V] was 3.79; that for VSVNAQTLDGRTPLHLAAQRGPYR [H22P] was 2.89.

Take VSVNAQTLDGRTPLHLAAQRGIYR [H22I]: the protein stability index was 2.83.

Consider VSVNAQTLDGRTPLHLAAQRGDYR [H22D], for which the protein stability index turned out to be 3.23. Same read-out and setting: the value for VSVNAQTLDGRTPLHLAAQRGYYR [H22Y] was 2.47; that for VSVNAQTLDGRTPLHLAAQRGEYR [H22E] was 3.27; that for VSVNAQTLDGRTPLHLAAQRGMYR [H22M] was 2.96. The same measure, in the same setting: the value for VSVNAQTLDGRTPLHLAAQRGRYR [H22R] was 4.29; that for VSVNAQTLDGRTPLHLAAQRGAYR [H22A] was 3.3; that for VSVNAQTLDGRTPLHLAAQRGKYR [H22K] was 3.89. Same read-out and setting: the result for VSVNAQTLDGRTPLHLAAQRGCYR [H22C] reads 2.98; that for VSVNAQTLDGRTPLHLAAQRGLYR [H22L], 2.69. For VSVNAQTLDGRTPLHLAIQRGHYR [A18I], the protein stability index worked out at 2.75. Still for that read-out and setting: the value for VSVNAQTLDGRTPLHLAKQRGHYR [A18K] was 2.58; that for VSVNAQTLDGRTPLHLAYQRGHYR [A18Y] was 2.19; that for VSVNAQTLDGRTPLHLAVQRGHYR [A18V] was 2.97.

Consider VSVNAQTLDGRTPLHLASQRGHYR [A18S], for which the protein stability index turned out to be 3.38.

As to VSVNAQTLDGRTPLHLARQRGHYR [A18R], the protein stability index was 3.32.

With VSVNAQTLDGRTPLHLADQRGHYR [A18D], the protein stability index was 3.31. The same measure, in the same setting: the result for VSVNAQTLDGRTPLHLAEQRGHYR [A18E] reads 3.13; that for VSVNAQTLDGRTPLHLAPQRGHYR [A18P], 3.21; that for VSVNAQTLDGRTPLHLAQQRGHYR [A18Q], 3.29. On the same count and under the same terms, the value for VSVNAQTLDGRTPLHLAGQRGHYR [A18G] was 3.5; that for VSVNAQTLDGRTPLHLAHQRGHYR [A18H] was 3.13. In the case of VSVNAQTLDGRTPLHLANQRGHYR [A18N], the protein stability index was found to be 3.46. Same read-out and setting: the value for VSVNAQTLDGRTPLHLAWQRGHYR [A18W] was 2.09; that for VSVNAQTLDGRTPLHLAMQRGHYR [A18M] was 2.42.

For the variant VSVNAQTLDGRTPLHLALQRGHYR [A18L], the protein stability index is 2.64.

As to VSVNAQTLDGRTPLHLAFQRGHYR [A18F], the protein stability index was 1.89. Same read-out and setting: the value for VSVNAQTLDGRTPLHLACQRGHYR [A18C] was 2.61; that for VSVNAQTLDGRTPLHLATQRGHYR [A18T] was 3.08. VSVNAQTLDGRTPLHLAAQRSHYR [G21S]: the protein stability index was found to be 2.66.

With VSVNAQTLDGRTPLHLAAQRLHYR [G21L], the protein stability index came to 2.94.

VSVNAQTLDGRTPLHLAAQRRHYR [G21R]: the protein stability index was determined as 3.47. The same measure, in the same setting: the value for VSVNAQTLDGRTPLHLAAQREHYR [G21E] was 3.58; that for VSVNAQTLDGRTPLHLAAQRHHYR [G21H] was 3.26; that for VSVNAQTLDGRTPLHLAAQRYHYR [G21Y] was 2.81. Same read-out and setting: the result for VSVNAQTLDGRTPLHLAAQRAHYR [G21A] reads 2.77; that for VSVNAQTLDGRTPLHLAAQRKHYR [G21K], 3.33.

The record behind these values is the supplement of paper PMC10567573.
